Assay results from patent US20210171652A1 (University of Pennsylvania, published 2021).

T1: Band 3 / glycophorin A (Wright b, Wrb epitope) on human red blood cells (human, UniProt P02724 20-150)
T1 construct: whole, on cells; also called Band3/GPA; AE1
T1 sequence 1: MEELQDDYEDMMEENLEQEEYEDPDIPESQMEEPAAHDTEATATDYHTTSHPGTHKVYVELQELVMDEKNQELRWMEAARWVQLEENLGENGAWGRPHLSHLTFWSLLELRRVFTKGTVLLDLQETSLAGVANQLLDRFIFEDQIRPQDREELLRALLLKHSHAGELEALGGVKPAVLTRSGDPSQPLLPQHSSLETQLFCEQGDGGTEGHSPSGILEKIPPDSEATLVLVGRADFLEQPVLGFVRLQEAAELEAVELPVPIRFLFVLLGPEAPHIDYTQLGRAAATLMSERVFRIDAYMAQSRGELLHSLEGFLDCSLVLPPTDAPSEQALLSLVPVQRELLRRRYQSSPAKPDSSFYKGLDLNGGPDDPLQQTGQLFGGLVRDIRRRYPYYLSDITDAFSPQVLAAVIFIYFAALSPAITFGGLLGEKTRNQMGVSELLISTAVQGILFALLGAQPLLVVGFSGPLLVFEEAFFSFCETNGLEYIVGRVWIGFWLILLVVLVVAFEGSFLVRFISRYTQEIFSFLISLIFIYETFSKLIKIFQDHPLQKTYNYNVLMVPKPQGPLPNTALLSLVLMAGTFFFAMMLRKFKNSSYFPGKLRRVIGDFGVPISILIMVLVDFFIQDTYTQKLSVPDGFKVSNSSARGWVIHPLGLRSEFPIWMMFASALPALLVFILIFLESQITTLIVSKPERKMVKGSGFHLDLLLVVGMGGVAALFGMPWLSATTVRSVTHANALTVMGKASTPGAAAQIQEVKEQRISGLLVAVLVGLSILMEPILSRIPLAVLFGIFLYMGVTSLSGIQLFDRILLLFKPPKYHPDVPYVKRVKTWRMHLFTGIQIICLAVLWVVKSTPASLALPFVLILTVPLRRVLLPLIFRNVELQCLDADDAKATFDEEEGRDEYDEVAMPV
T1 sequence 2: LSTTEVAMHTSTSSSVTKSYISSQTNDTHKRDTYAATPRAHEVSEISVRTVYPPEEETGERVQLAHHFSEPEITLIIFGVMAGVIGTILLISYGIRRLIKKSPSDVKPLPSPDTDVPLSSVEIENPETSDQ


Target: T1, Band 3 / glycophorin A (Wright b, Wrb …)
Test: Fab/phage binding assays on human RBCs incl. rare RBC types lacking conserved antigens
Protocol: An IgG Fab/phage display library was prepared from the peripheral blood lymphocytes of a hyperimmunized macaque using homologous human V-region oligonucleotides (Siegel D L, R. M., Lee H, Blancher A., Production of large repertories of macaque mAbs to human RBCs using phage display. Transfusion, 1999. 39(S10): p. 92S, which is incorporated herein by reference). Fab/phage specific for human RBCs were isolated by panning on intact human RBCs. Monoclonal Fab/phage were grown to produce antibodies for immunoassays and their corresponding DNA was extracted for sequencing. To identify target epitopes, antibodies were screened against RBCs of known serologic phenotypes, including rare cells lacking highly conserved antigens, using standard immunohematologic techniques (Roback, J. D., Technical Manual. 2014: American Association of Blood Banks (AABB), which is incorporated herein by reference.)
Using antibody phage display, we identified non-human-primate Fab antibody fragments to antigenic determinants on human RBCs. By panning phage libraries on human RBCs, we produced a Fab/phage preparation with >10⁷ RBC-specific clones capable of agglutinating human RBCs. By performing binding assays against rare RBC types lacking highly conserved antigens and epitopes, we identified the target antigens of >30 of these clones. At least 34 clones bound the Wright b (Wrb) epitope formed by a Band 3/GPA interaction, present on the RBCs of essentially 100% of the human population. The Wrb epitope, determined by the protein sequence of Band 3, is a site of association between Band 3 with GPA, and GPA expression is simultaneously required for its presence on the membrane (Huang C H, Reid M E, Xie S S, Blumenfeld 00. Human red blood cell Wright antigens: a genetic and evolutionary perspective on glycophorin A-band 3 interaction. Blood. 1996; 87(9):3942-3947). At least 3 other clones bound to a highly-conserved epitope Rh17(Hr0) on human RhCE protein, also present on essentially 100% of the human population. Both these targets are specific for erythroid lineage (Rojewski M T, Schrezenmeier H, Flegel W A. Tissue distribution of blood group membrane proteins beyond red cells: evidence from cDNA libraries. Transfus Apher Sci.

Row | Binder | binding result
1 | KP2-01 Fab/phage clone (anti-Band 3, Wrb) (Fab, V domains shown) VH: EVQLLESGPGLVKPSETLSLTCAVSGDSISSGLGWSWIRQTPGKGLEWIGYIGGSRGNTNYNPSFKSRVTISRDTSKNQFSLRLSSMTAADTAVYYCARRAPYWGYSYLDYWGQGVLVTVSS VL: AAELTQSPATLSLSPGETATLSCRASQSIGSSLAWYQQRPGQAPKLLVHSAYFRAAGIPDRFSGSGSRTDFTLTISSLEPEDVGVYHCQQYNDLLPLTFGGGTKVELK | binds
2 | KP2-08 Fab/phage clone (anti-Band 3, Wrb) (Fab, V domains shown) VH: EVQLLESGPGLVKPSETLSLTCAVSGYSISSGYGWNWIRQPPGKGLEWIGSIGGSRDNTNYNPSLKSRVTLSKDTSKNHFSLRLRSVTAADTAVYYCARDGGYGSRYMDSWGQGVLVAVSS VL: AAELTQSPATLSLSPGEAATLSCRASQSIGTSLAWYQQKPGQAPRLLVHSAYFRATGIADRFSGSGSRTDFTLTISSLEPEDVGVYYCQQYNDLLPLTFGGGTKVEIK | binds
3 | KP2-07 Fab/phage clone (anti-Band 3, Wrb) (Fab, V domains shown) VH: EVQLLESGPGLVKPSETLSLTCAVSGDSISSGYGWHWIRQVPGRGLEWIGSIGGSRGTTNYNPSLKSRVTISEDTSKNQFSLSLRSVSAADTAVYFCARDSGYSFRYFDFWGQGVLVTVSS VL: ELVMTQSPATLSLSPGETATLSCRASQSVGSNLAWYQQKPGQAPKLLVHSAYFRATGIPDRFSGSGSRTDFTLTISSLEPEDVGVYHCQQYNDLLPLTFGGGTKVEIN | binds
4 | KP2-02 Fab/phage clone (anti-Band 3, Wrb) (Fab, V domains shown) VH: EVQLLESGPGLVKPSETLSLTCAVSGGSLSGGYDWSWIRQSSRKGLEWIGYIYDSRWTTNYNPSLKKRVTISIDTSKNQFSLNLKSVTAADTAVYYCARRGGYGASYFDLWGQGVLVTVSS VL: AAELTQSPATLSLFPGETATLSCRASQSIGSHLAWYQQKPGQAPKLLVHSVSFRATGIPDRFRGSGSRTDFTLTISSLEPEDVGVYHCQQYNDLLPLTFGGGTKVEIK | binds
5 | KP2-04 Fab/phage clone (anti-Band 3, Wrb) (Fab, V domains shown) VH: EVQLLESGPGLVKPSETLSLTCAVSGYSLSSAYGWNWIRQSPGKGLEWIGSIGGSRDNVNYNPSLKRRVTISKDTSTNHFSLRLSSVTAADTAVYYCVRRATYGNSYFDSWGQGVQVTVSS VL: ELTLTQSPATLSLSPGETATLSCRASQSVGSHLAWYQQKPGQAPKLLVHSAYFRATGIPDRFSGSGSRTDFTLTISSLEPEDVGVYHCQQYNDLLPLTFGGGTKVEIK | binds
6 | KP3-05 Fab/phage clone (anti-Band 3, Wrb) (Fab, V domains shown) VH: EVQLLESGPGLVKPSETLSLTCTVSGSSLSSAYGWNWIRQPPGKGLEWIGSIGGSRDNTNYNPSLKRRVTISKDTSKNQFSLKLKSVTAADTAVYYCAQRGAYGYSYFDYWGQGVLVAVSS VL: AAELTQSPATLSLSPGETATLSCRASQSVGSSLAWYQQKPGQAPKLLVHSAYFRATGIPDRFSGSGSRTDFTLTISSLEPEDVGVYHCHQYNDLLPLTFGGGTKVEIK | binds
7 | KP2-06 Fab/phage clone (anti-Band 3, Wrb) (Fab, V domains shown) VH: EVQLLESGPGLVKPSETLSLTCTVSGSSLSSAYGWNWIRQPPGKGLEWIGSIGGSRDNTNYNPSLKRRVTISKDTSKNQFSLKLKSVTAADTAVYYCAQRGAYGYSYFDYWGQGVLVAVSS VL: AAELTQSPATLSLSPGETATLSCRASQSVGSSLAWYQQKPGQAPKLLVHSISVRATGIPDRFSGSGSRTDFTLTITSLEPEDVGVYHCQQYNDFFPLTFGGGTKVEIK | binds
8 | KP3-16 Fab/phage clone (anti-Band 3, Wrb) (Fab, V domains shown) VH: EVQLLESGPGLVKPSETLSLTCTVSGSSLSSAYGWNWIRQPPGKGLEWIGSIGGSRDNTNYNPSLKRRVTISKDTSKNQFSLKLKSVTAADTAVYYCAQRGAYGYSYFDYWGQGVLVAVSS VL: AAELTQSPATLSLSPGETATLSCRASQSLGSRLAWYQQKPGQAPRLLIYGASTRATGIPDRFSGSGSRTDFTLTISSLEPEDVGVYHCQQYNDFLPLTFGGGTKVEIK | binds
9 | KP3-13 Fab/phage clone (anti-Band 3, Wrb) (Fab, V domains shown) VH: EVQLLESGPGLVRPSETLSLTCAVSGGSLSGGYDWSWIRQSPRKGLEWIGYIYDSRGTTNYNPSLKRRVTISIDTSKNQFSLNLKSVTAADTAVYYCARRGGYGASYFDLWGQGVLVTVSS VL: AAELTQSPATLSLSPGETATLSCRASQSVGSNLAWYQQKPGQAPKLLVHSASVRATGIPDRFSGSGSRTDFTLTISSLEPEDVGVYHCQQYNDFFPLTFGGGTKVEIK | binds
10 | KP3-18 Fab/phage clone (anti-Band 3, Wrb) (Fab, V domains shown) VH: EVQLLEWGPGLVKPSETLSLTCAVSGYSLSSAYGWNWIRQSPGKGLEWIGSIGGSRDNVNYNPSLKRRVTISKDTSTNHFSLRLSSVTAADTAVYYCVRRATYGNSYFDSWGQGVQVTVSS VL: ELTLTQSPATLSLSPGETATLSCRASQSVGSYLAWYQQKPGQAPKLLVHSAHFRATGIPDRFSGSGSRTDFTLTISSLEPEDVGVYHCQQYNDLLPLTFGGGTKVEIK | binds
11 | KP3-15 Fab/phage clone (anti-Band 3, Wrb) (Fab, V domains shown) VH: EVQLLESGPGLVKPSETLSLTCTVSGSSLSSAYGWNWIRQPPGKGLEWIGSIGGNRDNTNYNPSLKRRVTISKDTSKNQFSLKLKSVTAADTAVYYCAQRGAYGYSYFDYWGQGVLVAVSS VL: AAELTQSPATLSVSPGEAATLSCRASQTVGRNLAWYQQKPGQAPKLLVHSAHFRATGIPDRFSGSGSGTDFTLTISSLEPEDAGIYHCQQYNDLLPLTFGGGTKVEIK | binds
12 | KP2-09 Fab/phage clone (anti-Band 3, Wrb) (Fab, V domains shown) VH: EVQLLESGPGLVRPSETLSLTCAVSGYSISSGYGWHWIRQPPGKGLESLGYIGGSRGNTNYNPSLKSRVTISTDTSKNQFSLKLRSVTAADTAVYYCARDSGYNTRYFDYWGQGVLVTVSS VL: AAELTQSPATLSLSPGERATLSCRASQSVGSRLAWYQQKPGQAPRLLIYGASSRATGIPDRFSGSGSRTDFTLTISSLEPEDVGVYHCQQYNDLLPLTFGGGTKVEIK | binds
13 | KP2-11 Fab/phage clone (anti-Band 3, Wrb) (Fab, V domains shown) VH: EVQLQLPGPGLVKPSETLSLTCTVSGSSLSSAYGWNWIRQPPGKGLEWIGSIGGSRDNTNYNPSLKRRVTISKDTSKNQFSLKLKSVTAADTAVYYCAQRGAYGYSYFDYWGQGVLVAVSS VL: ELTLTQSPATLSLSPGETATLSCRASQSLGSRLAWYQQKPGQPPRLLIYGASTRATGIPDRFSGSGSRTDFTLTISSLEPEDVGVYHCQQYNDFPPLTFGGGTKVEIK | binds
14 | KP3-08 Fab/phage clone (anti-Band 3, Wrb) (Fab, V domains shown) VH: EVQLLESGPGLVKPSETLSLTCTVSGSSLSSAYGWNWIRQPPGKGLEWIGSIGGSRDNTNYNPSLKRRVTISKDTSKNQFSLKLKSVTAADTAVYYCAQRGAYGYSYFDYWGQGVLVAVSS VL: ELTLTQSPATLSLSPGETATLSCRASQSLGGRLAWYQQKPGQAPRLLIYGASTRATGIPDRFSGSGSRTEFTLTIAGLEPEDVGVYHCQQYNDFLPLTFGGGTKVEIK | binds
15 | KP3-02 Fab/phage clone (anti-Band 3, Wrb) (Fab, V domains shown) VH: EVQLLESGPGLVRPSETLSLTCAVSGYSISSGYGWHWIRQPPGKGLESLGYIGGSRGNTNYNPSLKSRVTISTDTSKNQFSLKLRSVTAADTAVYYCARDSGYNTRYFDYWGQGVLVTVSS VL: AAELTQSPATLSLSPGETATLSCRASQSVGSNLAWYQQKPGQAPKLLVHSAYFRATGIPDRFSGSGSRTDFTLTISSLEPEDVGVYHCQQYNDLLPLTFGGGTKVEIK | binds
